Test results: publication PMC3040192

What was measured:
Test in all cases: mass spectrometry
Settings in all cases: 37 °C (72 h incubation), 50 mM NaCl plus 50 mM buffer, 50 mM MES (pH 5.0-7.5) or 50 mM HEPES (pH 8.0-9.0), folded
His141 = His141 (UniProt position 141, VFSEFHDADAQ)
His114 = His114 (UniProt position 114, KLYLTHIDAEV)
His45 = His45 (UniProt position 45, VIMGRHTWESI)
His124 = His124 (UniProt position 124, VEGDTHFPDYE)
His149 = His149 (UniProt position 149, DAQNSHSYCFE)
[1] = Binary complex with methotrexate (DHFR-MTX; five-fold molar excess of MTX added during preparation)
[2] = Ternary complex with folate and NADP+ (DHFR-folate-NADP+; five-fold molar excess of each ligand added during preparation)
[3] = Ternary complex with methotrexate and NADPH (DHFR-MTX-NADPH; five-fold molar excess of each ligand added during preparation)

Question: Which pKa (His141; [1]) does the source give for “Dihydrofolate reductase (DHFR) (Escherichia coli)” here?
Answer: Its pKa is 8.12 (±0.14).

Question: What about the pKa (His141; [2]) of the same substance?
Answer: The pKa was 8.14 (±0.11).

Question: What about the pKa (His141; [3]) of the same substance?
Answer: Its pKa is 8.29 (±0.10).

Question: What about the pKa (His141; apo-DHFR (no ligand)) of the same substance?
Answer: The pKa was 8.04 (±0.08).

Question: And the pKa (His114; [2])?
Answer: The pKa was 7.17 (±0.16).

Question: What about the pKa (His114; [3]) of the same substance?
Answer: The pKa was 6.99 (±0.10).

Question: And the pKa (His114; apo-DHFR (no ligand))?
Answer: The pKa was 6.84 (±0.20).

Question: And the pKa (His45; [1])?
Answer: The pKa was 7.15 (±0.04).

Question: And the pKa (His45; [2])?
Answer: Its pKa is 7.30 (±0.07).

Question: And the pKa (His45; [3])?
Answer: The pKa was 7.43 (±0.03).

Question: What about the pKa (His45; apo-DHFR (no ligand)) of the same substance?
Answer: The pKa was 6.99 (±0.07).

Question: And the pKa (His124; [1])?
Answer: Its pKa is 7.02 (±0.06).

Question: What about the pKa (His124; [2]) of the same substance?
Answer: The pKa was 7.61 (±0.19).

Question: And the pKa (His124; [3])?
Answer: Its pKa is 7.17 (±0.20).

Question: What about the pKa (His124; apo-DHFR (no ligand)) of the same substance?
Answer: The pKa was 7.60 (±0.03).

Question: And the pKa (His149; [1])?
Answer: Its pKa is 6.13 (±0.13).

Question: And the pKa (His149; [2])?
Answer: Its pKa is 6.84 (±0.17).

Question: What about the pKa (His149; [3]) of the same substance?
Answer: The pKa was 6.17 (±0.10).

Question: And the pKa (His149; apo-DHFR (no ligand))?
Answer: Its pKa is 6.51 (±0.04).
